# Patent US20150344570A1 (published 2015)
# B1: GpH7-A5/GpH7-B3 variant K334_01G/GpL16-k0 (antibody, human IgG1, kappa)
# heavy 1: not shown
# heavy 2: not shown
# light: DIVMTQSPLSLPVTPGEPASISCQASESLVHSNRNTYLHWYLQKPGQSPQLLIYKVSNRFSGVPDRFSGSGSGTDFTLKISRVEAEDVGVYYCSQNTHVPPTFGQGTKVEIERTVAAPSVFIFPPSDEQLKSGTASVVCLLNNFYPREAKVQWKVDNALQSGNSQESVTEQDSKDSTYSLSSTLTLSKADYEKHKVYACEVTHQGLSSPVTKSFNRGEC
# notes: also called He Ab K334_01G
# B2: GpH7-A5/GpH7-B3 variant H268_13S/GpL16-k0 (antibody, human IgG1, kappa)
# heavy 1: not shown
# heavy 2: not shown
# light: DIVMTQSPLSLPVTPGEPASISCQASESLVHSNRNTYLHWYLQKPGQSPQLLIYKVSNRFSGVPDRFSGSGSGTDFTLKISRVEAEDVGVYYCSQNTHVPPTFGQGTKVEIERTVAAPSVFIFPPSDEQLKSGTASVVCLLNNFYPREAKVQWKVDNALQSGNSQESVTEQDSKDSTYSLSSTLTLSKADYEKHKVYACEVTHQGLSSPVTKSFNRGEC
# notes: also called He Ab H268_13S
# B3: GpH7-A5/GpH7-B3 variant I332_10E/GpL16-k0 (antibody, human IgG1, kappa)
# heavy 1: not shown
# heavy 2: not shown
# light: DIVMTQSPLSLPVTPGEPASISCQASESLVHSNRNTYLHWYLQKPGQSPQLLIYKVSNRFSGVPDRFSGSGSGTDFTLKISRVEAEDVGVYYCSQNTHVPPTFGQGTKVEIERTVAAPSVFIFPPSDEQLKSGTASVVCLLNNFYPREAKVQWKVDNALQSGNSQESVTEQDSKDSTYSLSSTLTLSKADYEKHKVYACEVTHQGLSSPVTKSFNRGEC
# notes: also called He Ab I332_10E
# B4: GpH7-A5/GpH7-B3 variant H268_10E/GpL16-k0 (antibody, human IgG1, kappa)
# heavy 1: not shown
# heavy 2: not shown
# light: DIVMTQSPLSLPVTPGEPASISCQASESLVHSNRNTYLHWYLQKPGQSPQLLIYKVSNRFSGVPDRFSGSGSGTDFTLKISRVEAEDVGVYYCSQNTHVPPTFGQGTKVEIERTVAAPSVFIFPPSDEQLKSGTASVVCLLNNFYPREAKVQWKVDNALQSGNSQESVTEQDSKDSTYSLSSTLTLSKADYEKHKVYACEVTHQGLSSPVTKSFNRGEC
# notes: also called He Ab H268_10E
# B5: GpH7-A5/GpH7-B3 variant I336_09D/GpL16-k0 (antibody, human IgG1, kappa)
# heavy 1: not shown
# heavy 2: not shown
# light: DIVMTQSPLSLPVTPGEPASISCQASESLVHSNRNTYLHWYLQKPGQSPQLLIYKVSNRFSGVPDRFSGSGSGTDFTLKISRVEAEDVGVYYCSQNTHVPPTFGQGTKVEIERTVAAPSVFIFPPSDEQLKSGTASVVCLLNNFYPREAKVQWKVDNALQSGNSQESVTEQDSKDSTYSLSSTLTLSKADYEKHKVYACEVTHQGLSSPVTKSFNRGEC
# notes: also called He Ab I336_09D
# B6: GpH7-A5/GpH7-B3 variant I336_06M/GpL16-k0 (antibody, human IgG1, kappa)
# heavy 1: not shown
# heavy 2: not shown
# light: DIVMTQSPLSLPVTPGEPASISCQASESLVHSNRNTYLHWYLQKPGQSPQLLIYKVSNRFSGVPDRFSGSGSGTDFTLKISRVEAEDVGVYYCSQNTHVPPTFGQGTKVEIERTVAAPSVFIFPPSDEQLKSGTASVVCLLNNFYPREAKVQWKVDNALQSGNSQESVTEQDSKDSTYSLSSTLTLSKADYEKHKVYACEVTHQGLSSPVTKSFNRGEC
# notes: also called He Ab I336_06M
# B7: GpH7-A5/GpH7-B3 variant A330_04F/GpL16-k0 (antibody, human IgG1, kappa)
# heavy 1: not shown
# heavy 2: not shown
# light: DIVMTQSPLSLPVTPGEPASISCQASESLVHSNRNTYLHWYLQKPGQSPQLLIYKVSNRFSGVPDRFSGSGSGTDFTLKISRVEAEDVGVYYCSQNTHVPPTFGQGTKVEIERTVAAPSVFIFPPSDEQLKSGTASVVCLLNNFYPREAKVQWKVDNALQSGNSQESVTEQDSKDSTYSLSSTLTLSKADYEKHKVYACEVTHQGLSSPVTKSFNRGEC
# notes: also called He Ab A330_04F
# B8: GpH7-A5/GpH7-B3 variant E333_16H/GpL16-k0 (antibody, human IgG1, kappa)
# heavy 1: not shown
# heavy 2: not shown
# light: DIVMTQSPLSLPVTPGEPASISCQASESLVHSNRNTYLHWYLQKPGQSPQLLIYKVSNRFSGVPDRFSGSGSGTDFTLKISRVEAEDVGVYYCSQNTHVPPTFGQGTKVEIERTVAAPSVFIFPPSDEQLKSGTASVVCLLNNFYPREAKVQWKVDNALQSGNSQESVTEQDSKDSTYSLSSTLTLSKADYEKHKVYACEVTHQGLSSPVTKSFNRGEC
# notes: also called He Ab E333_16H
# B9: GpH7-A5/GpH7-B3 variant H268_09D/GpL16-k0 (antibody, human IgG1, kappa)
# heavy 1: not shown
# heavy 2: not shown
# light: DIVMTQSPLSLPVTPGEPASISCQASESLVHSNRNTYLHWYLQKPGQSPQLLIYKVSNRFSGVPDRFSGSGSGTDFTLKISRVEAEDVGVYYCSQNTHVPPTFGQGTKVEIERTVAAPSVFIFPPSDEQLKSGTASVVCLLNNFYPREAKVQWKVDNALQSGNSQESVTEQDSKDSTYSLSSTLTLSKADYEKHKVYACEVTHQGLSSPVTKSFNRGEC
# notes: also called He Ab H268_09D
# B10: GpH7-A5/GpH7-B3 variant I332_19Q/GpL16-k0 (antibody, human IgG1, kappa)
# heavy 1: not shown
# heavy 2: not shown
# light: DIVMTQSPLSLPVTPGEPASISCQASESLVHSNRNTYLHWYLQKPGQSPQLLIYKVSNRFSGVPDRFSGSGSGTDFTLKISRVEAEDVGVYYCSQNTHVPPTFGQGTKVEIERTVAAPSVFIFPPSDEQLKSGTASVVCLLNNFYPREAKVQWKVDNALQSGNSQESVTEQDSKDSTYSLSSTLTLSKADYEKHKVYACEVTHQGLSSPVTKSFNRGEC
# notes: also called He Ab I332_19Q
# Molecular target: T1, FcγRIIIa extracellular domain with C-terminal His tag (human, UniProt P08637 17-208)
# T1 construct: extracellular domain; also called FcgRIIIa; 3a; not shown: His tag attached to the C terminus
# T1 sequence (P08637 17-208): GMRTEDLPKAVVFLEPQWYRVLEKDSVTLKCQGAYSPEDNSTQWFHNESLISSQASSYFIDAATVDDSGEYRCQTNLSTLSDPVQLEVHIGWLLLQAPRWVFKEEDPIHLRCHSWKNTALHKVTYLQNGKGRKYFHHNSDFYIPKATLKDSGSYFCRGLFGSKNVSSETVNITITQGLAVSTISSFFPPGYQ
# Test: SPR Biacore, captured antibody, FcγR analyte, relative binding
# Procedure: Analysis of interaction between objective antibody and the FcγR was carried out using Biacore T100 (GE Healthcare). HBS-EP+ (GE Healthcare) was used as the running buffer, and the measurement temperature was set to 25° C. Chips produced by immobilizing the antigen peptide by the amine coupling method to a Series S Sencor Chip CM5 (GE Healthcare), or alternatively, chips produced by allowing preliminarily biotinylated antigen peptides to interact with and immobilize onto a Series S Sensor Chip SA (certified) (GE Healthcare) were used. Antibodies of interest were captured onto an antigen peptide-immobilized chip, and allowed to interact to each FcγR diluted with running buffer. To regenerate and repeatedly use the chip, the antibodies captured on the chip were washed off by reacting 10 mM glycine-HCl, pH 1.5.
row,Binder,He/Con_3a
1,B1,121 % of HeCon Ab GpH7-A5/GpH7-B3/GpL16-k0 (=100)
2,B2,122 % of HeCon Ab GpH7-A5/GpH7-B3/GpL16-k0 (=100)
3,B3,233 % of HeCon Ab GpH7-A5/GpH7-B3/GpL16-k0 (=100)
4,B4,186 % of HeCon Ab GpH7-A5/GpH7-B3/GpL16-k0 (=100)
5,B5,106 % of HeCon Ab GpH7-A5/GpH7-B3/GpL16-k0 (=100)
6,B6,109 % of HeCon Ab GpH7-A5/GpH7-B3/GpL16-k0 (=100)
7,B7,147 % of HeCon Ab GpH7-A5/GpH7-B3/GpL16-k0 (=100)
8,B8,103 % of HeCon Ab GpH7-A5/GpH7-B3/GpL16-k0 (=100)
9,B9,197 % of HeCon Ab GpH7-A5/GpH7-B3/GpL16-k0 (=100)
10,B10,110 % of HeCon Ab GpH7-A5/GpH7-B3/GpL16-k0 (=100)
